The text below walks through data of paper PMC12965811 (Nature chemical biology, 2025).

The target in experiment [1] is full-length human cytoplasmic dynein 1 (wild type) (human) (UniProt Q14204). The experiment is described as follows: cryo-EM structure.
The target is the same in experiment [2]. The experiment is described as follows: mass photometry.
Experiment [3] deals with T1, Lis1^All (D192K, D205K, E300A and K303A) (human, UniProt P43034 1-410, D192K | D205K | E300A | K303A).
T1 sequence (looked up): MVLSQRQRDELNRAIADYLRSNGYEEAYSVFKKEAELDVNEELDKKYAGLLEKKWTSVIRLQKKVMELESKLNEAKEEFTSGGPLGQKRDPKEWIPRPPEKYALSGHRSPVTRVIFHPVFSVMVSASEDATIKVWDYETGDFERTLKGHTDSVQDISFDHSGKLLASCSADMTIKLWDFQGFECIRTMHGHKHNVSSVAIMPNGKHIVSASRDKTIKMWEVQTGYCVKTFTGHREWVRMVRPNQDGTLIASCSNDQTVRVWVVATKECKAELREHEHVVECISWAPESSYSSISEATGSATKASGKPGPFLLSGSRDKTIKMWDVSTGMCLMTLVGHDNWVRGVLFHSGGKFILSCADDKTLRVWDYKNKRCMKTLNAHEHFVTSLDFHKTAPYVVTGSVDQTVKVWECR
Kind of experiment: mass photometry.

The target in experiment [4] is T2, Lis1^AAA6 (N203K, D205K and Q222A) (human, UniProt P43034 1-410, N203K | D205K | Q222A).
T2 sequence (looked up): T1 sequence (looked up) with K192D, N203K, Q222A, A300E, A303K
The experiment is described as follows: mass photometry.

The target of experiment [5] is T3, human Lis1 (wild type) (human, UniProt P43034 1-410).
T3 sequence: T1 sequence (looked up) with K192D, K205D, A300E, A303K
The experiment is described as follows: mass photometry.

In experiment [6] the target is T4, Lis1^AAA5 (D192K, Y225A and C226D) (human, UniProt P43034 1-410, D192K | Y225A | C226D).
T4 sequence (looked up): T1 sequence (looked up) with K205D, Y225A, C226D, A300E, A303K
Kind of experiment: mass photometry.

Numbering of substitutions follows the chain as printed.

In experiment [1], “human Lis1 (wild type) (from UniProt P43034 1-410) (natural protein)” registered a percent of autoinhibited dynein particles in the Phi^L–Lis1 conformation of 57.3% and a stoichiometry N (Lis1 dimer per dynein) of 1. In experiment [2], this molecule returned a percent of 1:1 dynein:Lis1 complex (no Nde1, within 60 min) of 37%; a percent of complex formation (with Nde1, within a minute) of 69%; a stoichiometry N (Lis1 dimer per dynein dimer) of 1; a stoichiometry N (Lis1 dimer per dynein) of 1.

B1: human Nde1 (N-terminal residues 1–190) (domain or fragment, UniProt Q9NXR1 1-190, looked up)
chain: MEDSGKTFSSEEEEANYWKDLAMTYKQRAENTQEELREFQEGSREYEAELETQLQQIETRNRDLLSENNRLRMELETIKEKFEVQHSEGYRQISALEDDLAQTKAIKDQLQKYIRELEQANDDLERAKRATIMSLEDFEQRLNQAIERNAFLESELDEKENLLESVQRLKDEARDLRQELAVQQKQEKPR
With B1, the binding result in experiment [3], in experiment [4], in experiment [5] and in experiment [6] was “binds” in each case.
